We go through seven molecules from patent publication US20250011368A1, “DLL3 TARGETING PEPTIDES AND CONSTRUCTS THEREOF” (MARIANA ONCOLOGY INC., priority 2023, published 2025).

Numbered stars: 1 amine (or outer) side, 2 acyl side, 3 side chain; on linkers, the order of the positions; unused ones are H or OH. Bridge positions count the residues as written; N and C are the ends. Square brackets hold non-standard residues; d marks the D form. * marks the point of attachment. Ala(piperidin-4-yl) = O=C([C@H](CC1CCN([*:3])CC1)N[*:1])[*:2]; DOTA = O=C(O)CN1CCN(CC(=O)O)CCN(CC(=O)*)CCN(CC(=O)O)CC1; 2Nal = N[C@@H](Cc1ccc2ccccc2c1)C(=O)O

The target of one assay is T1, DLL3 on SHP-77 cells (human, UniProt Q9NYJ7 27-618).
T1 construct: SHP-77 cells are human-derived, non-engineered SCLC cells
T1 sequence: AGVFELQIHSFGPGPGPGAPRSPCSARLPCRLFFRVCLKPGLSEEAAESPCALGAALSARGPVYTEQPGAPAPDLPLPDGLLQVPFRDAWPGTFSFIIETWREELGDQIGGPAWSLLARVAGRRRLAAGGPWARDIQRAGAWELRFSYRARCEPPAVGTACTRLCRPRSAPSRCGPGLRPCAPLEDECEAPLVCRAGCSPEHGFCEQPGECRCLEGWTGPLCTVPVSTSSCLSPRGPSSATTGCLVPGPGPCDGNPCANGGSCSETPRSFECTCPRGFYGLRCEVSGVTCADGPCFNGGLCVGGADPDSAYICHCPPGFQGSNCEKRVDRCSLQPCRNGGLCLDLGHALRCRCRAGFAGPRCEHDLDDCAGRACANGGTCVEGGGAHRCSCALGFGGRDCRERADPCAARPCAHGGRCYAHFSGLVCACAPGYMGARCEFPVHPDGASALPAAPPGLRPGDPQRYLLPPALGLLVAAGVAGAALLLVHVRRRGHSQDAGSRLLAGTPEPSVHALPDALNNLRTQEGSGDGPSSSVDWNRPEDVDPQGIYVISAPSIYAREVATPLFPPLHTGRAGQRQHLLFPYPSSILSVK
As to the kind of experiment: 177Lu-peptide bound to SHP-77 cells, gamma counting; letter grade, key in paragraph 629. The procedure: (§1) The study was conducted using SHP-77, CT26.WT, and CT26.DLL3 cells (Table 7) Adherent cell studies: The cells were cultured in appropriate culture media (20 mL) in tissue culture treated T150 flasks at 37° C. and 5% CO2. Adherent cells were detached (60-70% confluent) using 5 mL Versene at 37° C. for 3 minutes. After confirming the viability using countess and count of detached cells using Trypan blue, the cells were centrifuged at 4° C. for 5 minutes (1,000 rpm). The cell pellet obtained was washed once with PBS and resuspended in 1% PBSA to obtain the desired cell concentration (5-25 million cells/mL).
(§2) Total uptake: Cells were incubated with 300 μL (0.8 μCi) of the incubation buffer (containing radiolabeled peptide [¹⁷⁷Lu] Lu-test peptide) for 1 hour at 37° C. (Table 8). Post incubation, the cells were pelleted and washed 2 times using cold PBS+1% BSA. The supernatant and washes were combined and counted together as “unbound fraction” in a gamma counter. The cells were then resuspended in 300 μL of 1% PBS+1% BSA and counted in the gamma counter as “bound fraction”.

The target in a further assay is T2, DLL3 on CT26.DLL3 cells (Homo sapiens (Human), UniProt Q9NYJ7 27-618).
T2 construct: CT26.DLL3 are engineered cells to express DLL3
T2 sequence: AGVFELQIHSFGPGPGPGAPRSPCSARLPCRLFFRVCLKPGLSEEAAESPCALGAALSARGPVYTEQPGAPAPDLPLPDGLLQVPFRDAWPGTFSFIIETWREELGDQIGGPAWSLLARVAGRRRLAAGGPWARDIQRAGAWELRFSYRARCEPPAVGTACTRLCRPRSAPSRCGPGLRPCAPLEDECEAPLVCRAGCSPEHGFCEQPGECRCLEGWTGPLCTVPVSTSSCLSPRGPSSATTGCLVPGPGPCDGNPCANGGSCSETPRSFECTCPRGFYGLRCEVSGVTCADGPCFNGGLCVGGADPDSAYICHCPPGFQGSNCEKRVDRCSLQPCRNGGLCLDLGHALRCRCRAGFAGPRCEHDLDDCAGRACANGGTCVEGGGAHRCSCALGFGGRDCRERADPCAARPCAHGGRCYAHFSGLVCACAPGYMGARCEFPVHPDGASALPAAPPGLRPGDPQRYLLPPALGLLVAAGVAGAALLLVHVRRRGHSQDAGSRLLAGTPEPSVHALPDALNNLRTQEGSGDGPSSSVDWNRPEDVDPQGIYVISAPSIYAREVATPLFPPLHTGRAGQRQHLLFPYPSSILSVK
As to the kind of experiment: 177Lu-peptide bound to CT26.DLL3 cells, gamma counting; letter grade, key in paragraph 629. The procedure: as §1, §2

B1: [177Lu]Lu-labelled Cpd No. 75 (peptide)
peptide: Ac-WTICNN[2Nal]HDCWP[dK](DOTA)-NH2
modifications: disulfide 4-10; also: 177Lu in the DOTA chelator
notes: also called [177Lu]Lu-test peptide
As for B1, in the assay with DLL3 on SHP-77 cells, the “% Binding” value is at most 25%.

B2: [177Lu]Lu-labelled Cpd No. 237 (peptide)
peptide: Ac-WTICNN[2Nal]KDCWP[dK](DOTA)-NH2
modifications: disulfide 4-10; also: 177Lu in the DOTA chelator
notes: as for B1
In the case of B2, the “% Binding” value in the assay with DLL3 on CT26.DLL3 cells is at most 25%.

B3: [177Lu]Lu-labelled Cpd No. 211 (peptide)
peptide: Ac-WTICNN[2Nal]HNCWP[dK](DOTA)-NH2
modifications: disulfide 4-10; also: 177Lu chelated in DOTA
notes: as for B1
For B3, in the assay with DLL3 on CT26.DLL3 cells, the “% Binding” value was at most 25%.

B4: [177Lu]Lu-labelled Cpd No. 23 (peptide)
peptide: Ac-WTICNNWHDCWP[dK](DOTA)-NH2
modifications: disulfide 4-10; also: 177Lu chelated in DOTA
notes: as for B1
Take B4: the “% Binding” value in the assay with DLL3 on CT26.DLL3 cells and with DLL3 on SHP-77 cells was at most 25% each time.

B5: [177Lu]Lu-labelled Cpd No. 165 (peptide)
peptide: Ac-WTICNN[2Nal]HDCWP[dK](DOTA)-NH2
modifications: bridge 4-10; also: 177Lu chelated in DOTA
notes: as for B1
For the molecule B5, the “% Binding” value in the assay with DLL3 on SHP-77 cells is at most 25%.

B6: [177Lu]Lu-labelled Cpd No. 267 (peptide)
peptide: Ac-WTICN[Ala(piperidin-4-yl)][2Nal]HDCWP[dK](DOTA)-NH2
modifications: disulfide 4-10; also: 177Lu in the DOTA chelator
notes: as for B1
Regarding B6, the “% Binding” value with DLL3 on CT26.DLL3 cells was at most 25%.

B7: [177Lu]Lu-labelled Cpd No. 166 (peptide)
peptide: Ac-WTICNN[2Nal]HDCWPK(DOTA)-NH2
modifications: disulfide 4-10; also: 177Lu chelated in DOTA
notes: as for B1
Consider B7, for which the “% Binding” value with DLL3 on SHP-77 cells was at most 25%.
